Results taken from paper PMC10724200, “A peptide derived from interleukin-10 exhibits potential anticancer activity and can facilitate cell targeting of gold nanoparticles loaded with anticancer therapeutics” (Communications Chemistry, 2023).
Entries after “also recorded” stand apart in the source; their conditions may differ. Ends that are not written are not given here.

Tests used:
[1] = system: BT-474 breast cancer cells; assay: Therapeutic efficacy: cell viability (CCK-8), BT-474 breast cancer cells; assay type: cell-based, human
Source text: 5-FU is a cytotoxic chemotherapeutic drug used in the treatment of a variety of cancers, including breast cancer. […] The gold nanoparticles fabricated in this study may be used as a delivery material to deliver 5-FU into cancer cells. Here, we loaded 5-FU onto NK20a/Poly A15@Au and Poly A15@Au nanoparticles.

[2] = parameters: method as in 2 sources, ref 40 = [40]; PMID 22211087; doi:10.7150/ijms.9.33; 40. Kadoyama K Adverse event profiles of 5-fluorouracil and capecitabine: data mining of the public version of the FDA adverse event reporting system, AERS, and reproducibility of clinical observation ||| ref 49 = [49]; 49. Casale, J. & Patel, P. Fluorouracil [Updated 2022 Nov 24]. In StatPearls. (StatPearls Publishing, Treasure Island (FL), 2023).; conditions: cited from earlier work
Source text: 5-FU is a cytotoxic chemotherapeutic drug used in the treatment of a variety of cancers, including breast cancer. […] The gold nanoparticles fabricated in this study may be used as a delivery material to deliver 5-FU into cancer cells. Here, we loaded 5-FU onto NK20a/Poly A15@Au and Poly A15@Au nanoparticles. […] It works by inhibiting the normal synthesis of thymidine by incorporating 5-FU metabolites into DNA and RNA, eventually leading to the arrest of synthetic pathways and subsequent apoptosis of treated cells[47],[48]. 5-FU is typically administered via intravenous injection. Infusions of 5-FU can be rapidly […] through the circulatory system, and prolonged administration of 5-FU is required to maintain a high level of 5-FU in the body, thereby enhancing clinical efficacy. However, its nonspecific toxicity, ...

[3] = target: T1, recombinant receptor human IL-10Ra protein (Homo sapiens, UniProt Q13651); assay: Biolayer interferometry kinetic assay, binding to IL-10Ra; conditions: for kon: read-out: ka (association constant)
T1 sequence (Q13651 22-578): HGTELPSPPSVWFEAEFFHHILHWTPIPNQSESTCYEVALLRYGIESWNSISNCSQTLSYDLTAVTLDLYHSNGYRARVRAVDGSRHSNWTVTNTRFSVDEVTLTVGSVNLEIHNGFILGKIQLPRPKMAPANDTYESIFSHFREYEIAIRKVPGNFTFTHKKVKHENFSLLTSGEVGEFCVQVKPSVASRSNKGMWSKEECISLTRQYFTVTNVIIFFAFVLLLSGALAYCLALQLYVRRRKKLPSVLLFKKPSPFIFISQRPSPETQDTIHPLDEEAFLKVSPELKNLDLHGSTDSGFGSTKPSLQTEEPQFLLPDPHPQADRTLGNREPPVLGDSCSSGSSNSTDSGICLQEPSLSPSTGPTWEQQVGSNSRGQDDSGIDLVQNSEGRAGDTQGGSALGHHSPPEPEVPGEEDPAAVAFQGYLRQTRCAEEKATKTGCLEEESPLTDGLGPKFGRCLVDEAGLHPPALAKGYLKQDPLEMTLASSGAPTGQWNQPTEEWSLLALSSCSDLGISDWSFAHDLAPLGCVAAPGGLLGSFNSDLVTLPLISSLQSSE
Procedure: Biolayer interferometry (BLI) was applied to analyze peptide–receptor protein interactions. BLI was performed with a ForteBio Octet RED96e System (Sartorius AG, Göttingen, Germany) by using high-precision streptavidin and biosensors. The biosensors were hydrated in a plate for 15 min and then loaded with 10 μg/mL recombinant receptor human IL-10Ra protein and incubated for 150 s. […] After the association step, the biosensor was shifted to the dissociation buffer, phosphate-buffered saline (PBS) with 0.05% Tween20, for dissociation. Dissociation was recorded until equilibrium was reached (120 s).
To measure the binding ability of the designed and negative control peptides (NM25, NK20, NK20a, and control scramble peptide CG20) to the receptor IL-10Ra in vitro, BLI experiments were performed. […] When binding with IL-10Ra, the association constant (ka) of NK20 and NK20a was 1.02 × 10^4 (1/Ms) and 8.14 × 10^3 (1/Ms), respectively. The ka values of the refined peptides were approximately 12-fold higher than that of NM25. […] The equilibrium dissociation constant (KD) of NK20a interactions with IL-1R1was approximately 2000 times greater than that with IL-10Ra, and the calculated dissociation constant of NK20a interactions with IL-1R1 was to be 5000 times greater than that with IL-10Ra interactions (Table 2). […] As a result, NK20a was used for further investigations in this study.
Fig. 3 BLI kinetic assays of the designed peptides binding to the receptor IL-10Ra. Wavelength shift curves show the association and dissociation of the designed peptides (a) NM25, (b) NK20, (c) NK20a, (d) CG20 binding to the IL-10 receptor, and (e) NK20a binding to a control receptor IL-1R1 at various concentrations. Dissociation was recorded at 120 s after the binding started (black dotted line).

RAW 264.7 macrophages = assay: Atomic force microscopy of macrophage morphology / activation; assay type: cell-based; conditions: RAW 264.7, AFM; LPS 10 ng/mL, IL-10 10 ng/mL, NK20a 50 μg/mL pretreatment 30 min with LPS; fixed after 24 h
Procedure: Cell morphology was evaluated through atomic force microscopy (AFM) to observe the effects of the peptide on the cells. For AFM experiments, RAW 264.7 macrophages (5 × 10^4 cells/mL) were seeded on coverslips that had been treated with HCl to facilitate cell attachment. The cells were treated with lipopolysaccharides (LPS), NK20a, or IL-10 and incubated at 37 °C. After 24 h of incubation, the medium was removed, and the cells were washed twice with PBS. The cells were then fixed with 4% glutaraldehyde for 40 min. Finally, the fixation solution was removed, the samples were gently washed three times with Milli Q water, and then the samples were dried in a desiccator for 3 h. Cell morphology was imaged using an AFM instrument (Nanowizard, JPK BioAFM, Bruker Nano GmbH, Berlin, Germany). […] The AFM probes used were oxide-sharpened silicon nitride (Si3N4) probes (OMCL-TR400PB-1, Olympus, Tokyo, Japan) with a spring constant of 0.02 N/m. The SPM image processing software package version 3.1.6 (JPK BioAFM, Bruker Nano GmbH, Berlin, Germany) was used for processing and analysis of AFM image data.
Macrophages play a key role in tumor cell clearance. […] In this study, we examined the ability of NK20a to inhibit the anti-inflammatory effects of IL-10 on macrophages. The RAW 264.7 macrophage cell line was used in the evaluation, and the activation of macrophage cells was visualized through AFM. […]

BJAB B-lymphoma cells = assay: Cell viability assay (CCK-8), B-lymphoma cells; assay type: cell-based; conditions: 50 μg/mL NK20a and/or 10 ng/mL IL-10, 48 h, triplicate
Procedure: BJAB B-lymphoma cell lines were cultured in RPMI 1640 medium supplemented with 10% fetal bovine serum. RAW 264.7 macrophage and BT-474 human breast tumor cell lines were cultured in Dulbecco’s Modified Eagle Medium (DMEM) supplemented with 10% fetal bovine serum, 1% L-glutamine, 100 U/ml penicillin, 100 U/ml streptomycin, and sodium pyruvate. The cells were incubated at 37 °C in a 5% CO2 atmosphere.
For the cell viability assay, B-lymphoma cells were cultured in 96-well plates at a density of 3 × 10^3 cells/well for 24 h. The cells were then treated with 10 ng/mL IL-10 and 50 μg/mL NK20a, and further incubated for 48 h. After incubation, 10 μL of Cell Counting Kit-8 (CCK-8; Enzo Life Sciences, NY, USA) reagent was added, and the cells were incubated at 37 °C for 1 h. Cell viability was quantified by measuring the absorbance at 450 nm by using an ELISA plate reader (CLARIOstar Plus, BMG Labtech, Ortenberg, Germany).
Fig. 4 In vitro binding assay and cytotoxicity study. a B-lymphoma cells were treated with NK20a, and the fluorescence of the treated cells was analyzed through flow cytometry to determine the binding ability of NK20a to the cell surface. The fluorescence distribution of FITC was categorized as treated with NK20a (green) and untreated (red). b Bar chart showing the cell viability of the B-lymphoma cell line treated with 10 ng/mL IL-10, 50 μg/mL NK20a, and both, respectively. […]

[4] = target: T2, recombinant receptor human IL-10Ra protein (human, UniProt Q13651 22-235); assay: BLI; ForteBio Octet RED96e, streptavidin biosensors loaded with 10 μg/mL recombinant human IL-10Ra (150 s); peptides at 3.12-100.0 μM, association 120 s; dissociation 120 s in PBS with 0.05% Tween20; conditions: both partners purified
T2 construct: Interleukin-10 receptor subunit alpha, human, recombinant; also called IL-10 receptor
T2 sequence (looked up): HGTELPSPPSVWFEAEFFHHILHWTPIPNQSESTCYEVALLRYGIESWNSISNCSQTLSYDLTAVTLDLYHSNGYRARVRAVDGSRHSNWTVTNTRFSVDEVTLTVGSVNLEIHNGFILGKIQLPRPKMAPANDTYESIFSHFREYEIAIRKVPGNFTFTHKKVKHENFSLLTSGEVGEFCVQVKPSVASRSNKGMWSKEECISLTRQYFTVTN

[5] = target: T3, recombinant receptor human IL-10Ra protein (human, UniProt Q13651 22-235); assay: BLI; steady-state analysis
T3 chain: T2 sequence (looked up)

receptor IL-1R1 = receptor IL-1R1 (UniProt P14778 18-569, Source and limits not given; taken as the recombinant extracellular domain (UniProt topological domain 18-336) by convention. Human inferred from the human IL-10Ra used in the same BLI assay. Likely); assay: BLI; control receptor IL-1R1 in place of IL-10Ra; NK20a at various concentrations; conditions: both partners purified
[6] = BLI kinetic, human IL-10Ra, peptides 3.12-100.0 μM, association 120 s

receptor IL-1R1, sequence (P14778 18-569): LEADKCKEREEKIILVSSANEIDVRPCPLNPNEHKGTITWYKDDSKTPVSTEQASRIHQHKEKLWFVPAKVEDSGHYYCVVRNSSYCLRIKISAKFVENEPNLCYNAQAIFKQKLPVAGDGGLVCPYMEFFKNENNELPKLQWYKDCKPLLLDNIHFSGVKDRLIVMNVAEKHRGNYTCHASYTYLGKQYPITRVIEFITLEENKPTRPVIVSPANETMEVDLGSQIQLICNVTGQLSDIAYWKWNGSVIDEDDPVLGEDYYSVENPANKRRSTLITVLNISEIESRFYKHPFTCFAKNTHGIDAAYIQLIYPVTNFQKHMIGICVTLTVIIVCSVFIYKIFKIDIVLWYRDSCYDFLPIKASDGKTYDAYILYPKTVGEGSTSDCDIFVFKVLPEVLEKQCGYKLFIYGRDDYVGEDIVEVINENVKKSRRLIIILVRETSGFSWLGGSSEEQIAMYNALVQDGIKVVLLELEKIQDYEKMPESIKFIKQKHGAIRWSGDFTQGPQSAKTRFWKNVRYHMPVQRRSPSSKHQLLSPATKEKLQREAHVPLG

Which survival rate ([1]; BT-474, free 5-FU at 80 μM, 72 h, CCK-8) does the source give for `O=c1[nH]cc(F)c(=O)[nH]1` [5-FU, 5-fluorouracil] here?
The survival rate was “more than 70%”.

And the “cell survival / therapeutic effect on BT-474 (in words)” value ([1]; CCK-8, 72 h, 5-FU free up to 80 μM)?
Its value is “did not exhibit a significant therapeutic effect against the breast cancer cells”.

And the “membrane permeability (in words)” value [2]?
The value was “poor membrane permeability”.

What about the “membrane permeability / half-life in plasma (in words)” value [2] of the same molecule?
The value was “poor membrane permeability, and short half-life in plasma”.

Which “binding to IL-10Ra (in words)” value ([3]; BLI) does the source give for “CPLNGSTVYGHLRHCLSCSG [CG20, random, control scramble peptide, reference compound]” here?
Its value is “not able to bind to IL-10Ra”.

Which “macrophage activation, morphology (in words)” value (RAW 264.7 macrophages) does the source give for “IL-10: immune regulatory cytokine with strong anti-inflammatory activity” here?
The value was “the activation of macrophages was suppressed; also recorded: inhibited the inflammation of LPS-stimulated cells”.

What about the “kd (dissociation constant)” value ([3]; BLI kinetic, human IL-10Ra, dissociation 120 s in PBS with 0.05% Tween20) of the same molecule?
The value was <1e-07 s⁻¹.

And the “ka (association constant)” value [3, 6]?
The value was 224000 M⁻¹ s⁻¹.

What about the “cell proliferation / viability (in words)” value (BJAB B-lymphoma cells) of the same molecule?
Its value is “did not significantly promote the proliferation of lymphoma B cells”.

With NMLRDLRDAFSRVKTFFQMK [NK20] as the molecule, how does the kon [3, 6] read?
Its kon is 10200 M⁻¹ s⁻¹.

Which kon [3, 6] does the source give for NMLRDLRDAFSRVKTFFQMKDQLDN [NM25] here?
Its kon is 832 M⁻¹ s⁻¹.

B1: Human interleukin-10 (IL-10) (ligand, UniProt P22301 19-178, looked up)
chain: SPGQGTQSENSCTHFPGNLPNMLRDLRDAFSRVKTFFQMKDQLDNLLLKESLLEDFKGYLGCQALSEMIQFYLEEVMPQAENQDPDIKAHVNSLGENLKTLRLRLRRCHRFLPCENKSKAVEQVKNAFNKLQEKGIYKAMSEFDIFINYIEAYMTMKIRN
notes: Interleukin-10, human; the methods of the BLI describe only the peptides as analytes; also called IL-10 cytokine
Which Kd [4] does the source give for B1 here?
The Kd was < 1e-06 µM.

What about the koff [4] of the same molecule?
Its koff is < 1e-07 s⁻¹.

What about the kon [4] of the same molecule?
Its kon is 224000 M⁻¹ s⁻¹.

What about the Kd [5] of the same molecule?
Its Kd is 1 µM.

B2: NK20 peptide (peptide)
peptide: NMLRDLRDAFSRVKTFFQMK
notes: truncation of NM25 (five C-terminal residues removed); stretch of human IL-10; source: synthetic peptide (GeneMark, GMbiolab Co., solid-phase)
For B2, which Kd [4] is on record?
The Kd was 21.4 µM.

And the koff [4]?
The koff was 0.218 s⁻¹.

And the Kd [5]?
Its Kd is 0.26 µM.

B3: NK20a peptide (peptide)
peptide: NMLRNLRNAFSRVKTFFQMK
notes: NK20 with two Asp replaced by Asn; stretch of human IL-10; source: synthetic peptide (GeneMark, GMbiolab Co., solid-phase)
What does the source list for B3?
Kd [4]: 11.2 µM; koff [4]: 0.0909 s⁻¹; Kd (receptor IL-1R1): 28000 µM; koff (receptor IL-1R1): 512 s⁻¹; Kd [5]: 0.15 µM

B4: NM25 peptide (peptide)
peptide: NMLRDLRDAFSRVKTFFQMKDQLDN
notes: human IL-10; also called original peptide; source: synthetic peptide (GeneMark, GMbiolab Co., solid-phase)
Which results are given for B4?
Kd [4]: 41 µM; koff [4]: 0.0341 s⁻¹; Kd [5]: 0.55 µM
